Data: publication PMC3734830 (Cell Death & Disease, 2013)

Target: cytochrome c (human (endogenous in SK-N-BE), UniProt P99999 1-105)
Test: co-IP

cytochrome c, sequence (P99999 whole entry): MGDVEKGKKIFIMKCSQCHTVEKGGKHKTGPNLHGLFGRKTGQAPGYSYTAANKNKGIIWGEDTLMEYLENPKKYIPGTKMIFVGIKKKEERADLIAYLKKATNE

B1: Neuroglobin (natural protein, human (endogenous in SK-N-BE), UniProt Q9NPG2 1-151, looked up)
chain: MERPEPELIRQSWRAVSRSPLEHGTVLFARLFALEPDLLPLFQYNCRQFSSPEDCLSSPEFLDHIRKVMLVIDAAVTNVEDLSSLEEYLASLGRKHRAVGVKLSSFSTVGESLLYMLEKCLGPAFTPATRAAWSQLYGAVVQAMSRGWDGE
- fold NGB–cytochrome c association in mitochondria after E2: ~3.3 fold
